Source: patent EP4039268A1 (IMBA-Institut für Molekulare Biotechnologie GmbH, dated 2022)

Key:
[1] = molecular target: T1, full-length trimeric SARS-CoV-2 Spike protein (Spike-H6) (SARS-CoV-2, N-glycosylated (22 N-glycosylation sites)); experiment: ELISA screen
T1 construct: also called trimeric Spike; full-length Spike-H6

[2] = molecular target: T2, human recombinant soluble ACE2 (human, UniProt Q9BYF1 18-740); experiment: ELISA screen
T2 construct: also called hrsACE2

[3] = molecular target: T3, monomeric SARS-CoV-2 receptor binding domain (RBD-H6) (SARS-CoV-2, UniProt P0DTC2 319-541); experiment: ELISA screen
T3 construct: Made in HEK293-6E cells; also called RBD Spike; monomeric RBD

[4] = molecular target: T2, human recombinant soluble ACE2; experiment: ELISA
[5] = molecular target: T1, full-length trimeric SARS-CoV-2 Spike …; experiment: inhibition of Spike binding to Vero E6 cells, AFM
[6] = molecular target: T1, full-length trimeric SARS-CoV-2 Spike …; experiment: SPR, Spike immobilized, bivalent analyte model, first binding step
[7] = molecular target: T1, full-length trimeric SARS-CoV-2 Spike …; experiment: AFM single molecule force spectroscopy, Evans model

T2 sequence (Q9BYF1 18-740 limits assumed): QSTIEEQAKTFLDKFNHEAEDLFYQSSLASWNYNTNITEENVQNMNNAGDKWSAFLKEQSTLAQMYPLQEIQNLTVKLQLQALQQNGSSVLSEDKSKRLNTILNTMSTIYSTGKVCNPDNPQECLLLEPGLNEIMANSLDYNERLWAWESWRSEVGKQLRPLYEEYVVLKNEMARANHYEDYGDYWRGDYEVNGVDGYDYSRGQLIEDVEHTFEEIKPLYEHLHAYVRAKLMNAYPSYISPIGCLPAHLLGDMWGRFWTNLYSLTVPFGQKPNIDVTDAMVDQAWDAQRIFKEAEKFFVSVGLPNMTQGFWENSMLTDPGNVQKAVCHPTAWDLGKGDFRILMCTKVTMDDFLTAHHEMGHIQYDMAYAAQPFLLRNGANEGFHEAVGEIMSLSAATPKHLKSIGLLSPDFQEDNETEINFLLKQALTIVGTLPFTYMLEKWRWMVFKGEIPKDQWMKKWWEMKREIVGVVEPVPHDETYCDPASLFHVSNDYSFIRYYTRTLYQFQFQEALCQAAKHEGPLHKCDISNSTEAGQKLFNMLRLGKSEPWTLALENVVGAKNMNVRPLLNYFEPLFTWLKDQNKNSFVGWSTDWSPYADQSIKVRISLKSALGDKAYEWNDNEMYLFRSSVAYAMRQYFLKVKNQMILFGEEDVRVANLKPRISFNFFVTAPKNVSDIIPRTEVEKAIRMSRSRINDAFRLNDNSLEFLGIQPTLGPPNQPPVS

| Binder | Mean normalized OD [1] | Mean normalized OD [2] | Mean normalized OD [3] | binding result [4] | Ki [5] | Kd [6] | koff [6] | kon [6] | koff [7] |
| --- | --- | --- | --- | --- | --- | --- | --- | --- | --- |
| Clec14a CRD-mouse IgG2a-Fc fusion protein (Fc fusion) ASGACYSLHHATFKRRAAEEACSLRGGTLSTVHSGSEFQAVLLLLRAGPGPGGGSKDLLFWVALERSISQCTQEKEPLRGFSWLHPDSEDSEDSPLPWVEEPQRSCTVRKCAALQATRGVEPAGWKEMRCHLRTDGYLCKYGGGSGGGSGGGS | 0.012 OD | 0.029 OD | 0.004 OD | no binding (tested: 10 µg/ml) | – | – | – | – | – |
| Clec1b CRD-mouse IgG2a-Fc fusion protein (Fc fusion) HGDSCYGFFRRNLTWEESKQYCTEQNATLVKTASQSTLDYIAERITSVRWIGLSRQNSKKDWMWEDSSVLRKNGINLSGNTEENMNCAYLHNGKIHPASCKERHYLICEGGGSGGGSGGGS | 0.024 OD | 0.04 OD | 0.03 OD | no binding (tested: 10 µg/ml) | – | – | – | – | – |
| Cd22 CRD-mouse IgG2a-Fc fusion protein (Fc fusion) SANDWTVDHPQTLFAWEGACIRIPCKYKTPLPKARLDNILLFQNYEFDKATKKFTGTVLYNATKTEKDPESELYLSKQGRVTFLGNRIDNCTLKIHPIRANDSGNLGLRMTAGTERWMEPIHLNVSEGGGSGGGSGGGS | 0.027 OD | 0.006 OD | 0.004 OD | no binding (tested: 10 µg/ml) | – | – | – | – | – |
| Clec11a CRD-mouse IgG2a-Fc fusion protein (Fc fusion) LGHKCFLLSRDFETQAAAQARCKARGGSLAQPADRQQMDALSRYLRAALAPYNWPVWLGVHDRRSEGLYLFENGQRVSFFAWHRAFSLESGAQPSAATHPLSPDQPNGGVLENCVAQASDDGSWWDHDCERRLYFVCEGGGSGGGSGGGS | 0.032 OD | 0.17 OD | 0.011 OD | no binding (tested: 10 µg/ml) | – | – | – | – | – |
| Clec4g CRD-mouse IgG2a-Fc fusion protein (Fc fusion) FQGSCYYFSETQATWDTAQSYCGGQGAHLVIVRGLNEQGFLSQHTRGRGYWLGLRAVRHLNKIQGYRWVDGASLNFSHWNSGEPNDSRGHEDCIMMLHSGLWNDAPCTNERDGWICGGGSGGGSGGGS | 1.68 OD | 0.04 OD | – | no binding (tested: 10 µg/ml) | 0.035 to 0.07 µM | 1.62 µM | 0.0997 s⁻¹ | 61700 M⁻¹ s⁻¹ | 0.037 s⁻¹ |
| Sele CRD-mouse IgG2a-Fc fusion protein (Fc fusion) WYYNASSELMTYDEASAYCQRDYTHLVAIQNKEEINYLNSNLKHSPSYYWIGIRKVNNVWIWVGTGKPLTEEAQNWAPGEPNNKQRNEDCVEIYIQRTKDSGMWNDERCNKKKLALCYGGGSGGGSGGGS | 0.001 OD | 0 OD | 0 OD | no binding (tested: 10 µg/ml) | – | – | – | – | – |
| Clec2e CRD-mouse IgG2a-Fc fusion protein (Fc fusion) FGNKCFYFSEDMGNWTFSQSSCIALDAHLALFDSLEELNFLKRYKGASDHWIGLHRESSEHPWIWTDNTEYNNLVLTRGGGECAYLSNRGIYNSSGDIHKKWICNGGGSGGGSGGGS | 0.017 OD | 0.066 OD | 0.016 OD | no binding (tested: 10 µg/ml) | – | – | – | – | – |
| Thbd CRD-mouse IgG2a-Fc fusion protein (Fc fusion) VEHECFALFQGPATFLDASQACQRLQGHLMTVRSSVAADVISLLLSQSSMDLGPWIGLQLPQGCDDPVHLGPLRGFQWVTGDNHTSYSRWARPNDQTAPLCGPLCVTVSTATEAAPGEPAWEEKPCETETQGFLCEFGGGSGGGSGGGS | 0.003 OD | 0.001 OD | 0 OD | no binding (tested: 10 µg/ml) | – | – | – | – | – |
| Siglec15 CRD-mouse IgG2a-Fc fusion protein (Fc fusion) PAQRWSMQVPAEVNAEAGDAAVLPCTFTHPHRHYDGPLTAIWRSGEPYAGPQVFRCTAAPGSELCQTALSLHGRFRLLGNPRRNDLSLRVERLALADSGRYFCRVEFTGDAHDRYESRHGGGSGGGSGGGS | 0.008 OD | 0.011 OD | 0.001 OD | no binding (tested: 10 µg/ml) | – | – | – | – | – |
| Selp CRD-mouse IgG2a-Fc fusion protein (Fc fusion) WTYNYSTKAYSWNNSRVFCRRHFTDLVAIQNKNEIAHLNDVIPFFNSYYWIGIRKINNKWTWVGTNKTLTEEAENWADNEPNNKKNNQDCVEIYIKSNSAPGKWNDEPCFKRKRALCGGGSGGGSGGGS | 0.014 OD | 0 OD | 0.007 OD | no binding (tested: 10 µg/ml) | – | – | – | – | – |
| Clec12b CRD-mouse IgG2a-Fc fusion protein (Fc fusion) YGNSCYYFSINEEKSWSDSRKDCIDKNATLVKIDSTEERDLLQSQLSLTFSFFWLGLSWNSSGRNWLWEDGSFPPPTLFSDKELASFNGSRDCAYFERGNIYASRCSAEIPWICEGGGSGGGSGGGS | 0.002 OD | 0.007 OD | 0.001 OD | no binding (tested: 10 µg/ml) | – | – | – | – | – |
| Clec10a CRD-mouse IgG2a-Fc fusion protein (Fc fusion) CCPLHWTEHEGSCYWFSESEKSWPEADKYCRLENSHLVVVNSLEEQNFLQNRLANVVSWIGLTDQNGPWRWVDGTDFEKGFKNWAPLQPDNWFGHGLGGGEDCAHITTGGPWNDDVCQRTFRWICEMGGGSGGGSGGGS | 0.069 OD | 0.125 OD | 0.064 OD | no binding (tested: 10 µg/ml) | – | – | – | – | – |
| Sftpd CRD-mouse IgG2a-Fc fusion protein (Fc fusion) VGDKIFRTADSEKPFEDAQEMCKQAGGQLASPRSATENAAIQQLITAHNKAAFLSMTDVGTEGKFTYPTGEPLVYSNWAPGEPNNNGGAENCVEIFTNGQWNDKACGEQRLVICEFGGGSGGGSGGGS | 0.031 OD | 0.016 OD | 0.002 OD | no binding (tested: 10 µg/ml) | – | – | – | – | – |
| Pla2r1_7 CRD-mouse IgG2a-Fc fusion protein (Fc fusion) YGNRTYKIIRGNMTWYAAGKSCRMHRAELASIPDAFHQAFLTVLLSRLGHTHWIGLSTTDNGQTFDWSDGTKSPFTYWKDEESAFLGDCAFADTNGRWHSTACESFLQGAICGGGSGGGSGGGS | 0.002 OD | 0 OD | 0 OD | no binding (tested: 10 µg/ml) | – | – | – | – | – |
| Asgr2 CRD-mouse IgG2a-Fc fusion protein (Fc fusion) CCPVNWVEFGGSCYWFSRDGLTWAEADQYCQLENAHLLVINSREEQDFVVKHRSQFHIWIGLTDRDGSWKWVDGTDYRSNYRNWAFTQPDNWQGHEQGGGEDCAEILSDGHWNDNFCQQVNRWVCEKGGGSGGGSGGGS | 0.003 OD | 0.034 OD | 0.013 OD | no binding (tested: 10 µg/ml) | – | – | – | – | – |
| Cd72 CRD-mouse IgG2a-Fc fusion protein (Fc fusion) CCPCGWIPYQERCFYISHTLGSLEESQKYCTSLSSKLAAFDEPSKYYYEVSLPSGLEELLDRSKSYWIQMSKKWRQDSDSQSRHCVRIKTYYQKWERTISKCAELHPCICESGGGSGGGSGGGS | 0.033 OD | 0.044 OD | 0.015 OD | no binding (tested: 10 µg/ml) | – | – | – | – | – |
